# Measurements reported in publication PMC2874908.
# Read-outs that look alike come from different tables or passages of the source.
# Legend:
# [1] = molecular target: β-catenin (endogenous, CHO cells) (Chinese hamster (endogenous in CHO)) (UniProt G3H996); experiment: co-IP
# [2] = molecular target: β-catenin (endogenous, CHO cells) (Chinese hamster (endogenous in CHO)) (UniProt G3H996); experiment: co-IP; remark: listed apart in the source
substance,measurement,setting,value
"dynein (microtubule motor protein; endogenous, CHO cells) (complex)","fold change of dynein with β-catenin, V13 cells against E-cadherin cells",[1],2 to 2.5 fold
same,"fold change of dynein with β-catenin, V13 cells against E-cadherin cells",[2],3 fold
